Assay [1] deals with H3–H4 (H3 refolded with labeled H4 E63C) (UniProt P61830). The experiment in a line: FRET or BRET.
The target of assay [2] is H2A–H2B (H2A T118C labeled with Alexa-488 refolded with H2B) (UniProt P04911). The experiment in a line: FRET or BRET.
UniProt P04911, sequence (P04911 2-132, chain 1 of 2): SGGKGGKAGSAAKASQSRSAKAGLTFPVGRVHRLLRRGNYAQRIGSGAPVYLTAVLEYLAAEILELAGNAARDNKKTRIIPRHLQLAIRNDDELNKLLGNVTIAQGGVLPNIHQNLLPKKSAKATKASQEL
UniProt P04911, sequence (P02294 2-131 T119C, chain 2 of 2, further chain): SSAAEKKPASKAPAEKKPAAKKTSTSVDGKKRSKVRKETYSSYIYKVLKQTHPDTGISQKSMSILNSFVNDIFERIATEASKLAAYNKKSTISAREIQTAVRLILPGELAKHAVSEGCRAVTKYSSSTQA

“Scm3, full length, labeled with Atto-647N at cysteine 41 (from UniProt Q12334 1-223) (natural protein)”: the figures for the dissociation constant (Kd) in assay [1] and in assay [2] were 196 nM and 305 nM, respectively.

These data come from publication PMC4027189.
